Where two headings read alike, the source gives them in different places.

Here are results for one substance from PMC2668763.

Consider “hCdc14A: Cdc14A phosphorylation mutants (S351,363A and S351,363D)”, for which the localisation_or_trafficking entry by setting is: (phosphorylation at S351) “no change”; (phosphorylation at S363) “no change”.
